Data: paper PMC6305486

Molecular target: FtsQ_(50–276), P06136
Assay: BLI
Conditions: chain shown with the change; GST-e5-FtsB (mutant) in complex with k5-FtsL immobilized; FtsQ analyte 0-60 µM; parent: 0.24 ± 0.01

Chain of FtsQ_(50–276), P06136 (P06136 50-276): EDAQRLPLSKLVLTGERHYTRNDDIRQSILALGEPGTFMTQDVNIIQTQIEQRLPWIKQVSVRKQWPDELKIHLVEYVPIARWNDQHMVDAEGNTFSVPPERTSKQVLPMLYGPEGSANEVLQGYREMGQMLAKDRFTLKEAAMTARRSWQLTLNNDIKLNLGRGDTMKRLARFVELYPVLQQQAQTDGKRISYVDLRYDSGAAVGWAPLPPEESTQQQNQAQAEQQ

- Kd: 2400 nM
B1: GST-fused e5-FtsB_(25–103)/k5-FtsL_(64–121) complex (WT), P0A6S5;P0AEN4 E68A (protein)
chain 1: GIHDYTRVNDDVAAQQATNAKLKARNDQLFAEIDDLNGGQEALAERARNELSMTRPGETFYRLVPDASKRAQSAGQNNR
chain 2: TAQREQLVLERDALDIEWRNLILEENALGDHSRVERIATEKLQMQHVDPSQENIVVQK
